The Human Domainome abundance scans (Beltran et al. 2025)
± gives the uncertainty stated by the source.

Assay: abundance fitness (aPCA) (normalised: wild type 0, dead -1); higher = more abundant; growth selection in yeast, the domain comes from the species named
Conditions: Homo sapiens
For “NEDD4-like E3 ubiquitin-protein ligase WWP2 V459I, O00308”, the abundance fitness was -0.106 ± 0.072. In the case of “NEDD4-like E3 ubiquitin-protein ligase WWP2 Y461R, O00308”, the abundance fitness is reported as -0.762 ± 0.046. With “NEDD4-like E3 ubiquitin-protein ligase WWP2 G458T, O00308” the abundance fitness was -0.505 ± 0.058. “NEDD4-like E3 ubiquitin-protein ligase WWP2 T469Y, O00308” showed an abundance fitness of -0.264 ± 0.062. With “NEDD4-like E3 ubiquitin-protein ligase WWP2 R460D, O00308” the abundance fitness was -0.169 ± 0.083. For “NEDD4-like E3 ubiquitin-protein ligase WWP2 I441A, O00308”, the abundance fitness was -0.113 ± 0.053. In the case of “Transcription factor SOX-11 I99Y, P35716”, the abundance fitness is reported as -0.01 ± 0.053. Work on “NEDD4-like E3 ubiquitin-protein ligase WWP2 R460W, O00308” yielded an abundance fitness of -0.413 ± 0.036. With “NEDD4-like E3 ubiquitin-protein ligase WWP2 T483E, O00308” the abundance fitness was -0.032 ± 0.057. “NEDD4-like E3 ubiquitin-protein ligase WWP2 R493I, O00308” showed an abundance fitness of -0.502 ± 0.18. For “NEDD4-like E3 ubiquitin-protein ligase WWP2 G449W, O00308”, the abundance fitness was -0.283 ± 0.053. For “NEDD4-like E3 ubiquitin-protein ligase WWP2 L446F, O00308”, the abundance fitness was -0.011 ± 0.07. “NEDD4-like E3 ubiquitin-protein ligase WWP2 T471Q, O00308” showed an abundance fitness of -0.291 ± 0.073. For “NEDD4-like E3 ubiquitin-protein ligase WWP2 E457V, O00308”, the abundance fitness was -0.188 ± 0.031. “NEDD4-like E3 ubiquitin-protein ligase WWP2 G478R, O00308” gave an abundance fitness of 0.032 ± 0.047. “NEDD4-like E3 ubiquitin-protein ligase WWP2 A445W, O00308” gave an abundance fitness of -0.074 ± 0.062. With “NEDD4-like E3 ubiquitin-protein ligase WWP2 Q485R, O00308” the abundance fitness was -0.028 ± 0.038. Substance “NEDD4-like E3 ubiquitin-protein ligase WWP2 F472Y, O00308” has an abundance fitness of -0.025 ± 0.057. Substance “NEDD4-like E3 ubiquitin-protein ligase WWP2 G482W, O00308” has an abundance fitness of -0.151 ± 0.05. Work on “NEDD4-like E3 ubiquitin-protein ligase WWP2 K473H, O00308” yielded an abundance fitness of -0.1 ± 0.055. “NEDD4-like E3 ubiquitin-protein ligase WWP2 P444A, O00308” showed an abundance fitness of -0.089 ± 0.059. Work on “NEDD4-like E3 ubiquitin-protein ligase WWP2 P488T, O00308” yielded an abundance fitness of -0.044 ± 0.048. In the case of “NEDD4-like E3 ubiquitin-protein ligase WWP2 T455P, O00308”, the abundance fitness is reported as -0.968 ± 0.071. In the case of “NEDD4-like E3 ubiquitin-protein ligase WWP2 N466M, O00308”, the abundance fitness is reported as -0.188 ± 0.07. With “NEDD4-like E3 ubiquitin-protein ligase WWP2 G489K, O00308” the abundance fitness was 0.001 ± 0.069. “Transcription factor SOX-11 M89A, P35716” gave an abundance fitness of 0.098 ± 0.071. With “NEDD4-like E3 ubiquitin-protein ligase WWP2 G449F, O00308” the abundance fitness was -0.163 ± 0.052. “NEDD4-like E3 ubiquitin-protein ligase WWP2 E480D, O00308” showed an abundance fitness of 0.015 ± 0.06. Work on “NEDD4-like E3 ubiquitin-protein ligase WWP2 Q485W, O00308” yielded an abundance fitness of -0.149 ± 0.062. Substance “NEDD4-like E3 ubiquitin-protein ligase WWP2 E457W, O00308” has an abundance fitness of -0.624 ± 0.096. For “NEDD4-like E3 ubiquitin-protein ligase WWP2 V459R, O00308”, the abundance fitness was -0.127 ± 0.051. Substance “NEDD4-like E3 ubiquitin-protein ligase WWP2 K484D, O00308” has an abundance fitness of -0.028 ± 0.073. With “NEDD4-like E3 ubiquitin-protein ligase WWP2 T469G, O00308” the abundance fitness was -0.346 ± 0.054. With “NEDD4-like E3 ubiquitin-protein ligase WWP2 F472L, O00308” the abundance fitness was -0.289 ± 0.052. Work on “NEDD4-like E3 ubiquitin-protein ligase WWP2 S487A, O00308” yielded an abundance fitness of -0.034 ± 0.055. “NEDD4-like E3 ubiquitin-protein ligase WWP2 Y491N, O00308” gave an abundance fitness of -0.208 ± 0.076. “NEDD4-like E3 ubiquitin-protein ligase WWP2 Y454K, O00308” showed an abundance fitness of -0.015 ± 0.067. “NEDD4-like E3 ubiquitin-protein ligase WWP2 K484C, O00308” showed an abundance fitness of -0.033 ± 0.055. “NEDD4-like E3 ubiquitin-protein ligase WWP2 Y491Q, O00308” showed an abundance fitness of -0.01 ± 0.051. Substance “NEDD4-like E3 ubiquitin-protein ligase WWP2 H465C, O00308” has an abundance fitness of -0.411 ± 0.067. Work on “Transcription factor SOX-11 E78V, P35716” yielded an abundance fitness of -0.615 ± 0.066. “NEDD4-like E3 ubiquitin-protein ligase WWP2 Y454P, O00308” showed an abundance fitness of -0.592 ± 0.068. Substance “NEDD4-like E3 ubiquitin-protein ligase WWP2 P475D, O00308” has an abundance fitness of -0.867 ± 0.14. “NEDD4-like E3 ubiquitin-protein ligase WWP2 N466T, O00308” showed an abundance fitness of -0.255 ± 0.063. Work on “NEDD4-like E3 ubiquitin-protein ligase WWP2 P448N, O00308” yielded an abundance fitness of 0.071 ± 0.072. In the case of “NEDD4-like E3 ubiquitin-protein ligase WWP2 G478C, O00308”, the abundance fitness is reported as -0.001 ± 0.039. In the case of “NEDD4-like E3 ubiquitin-protein ligase WWP2 F479I, O00308”, the abundance fitness is reported as -0.086 ± 0.07. With “NEDD4-like E3 ubiquitin-protein ligase WWP2 Y461N, O00308” the abundance fitness was -0.752 ± 0.052. Substance “NEDD4-like E3 ubiquitin-protein ligase WWP2 H465A, O00308” has an abundance fitness of -0.378 ± 0.05. For “NEDD4-like E3 ubiquitin-protein ligase WWP2 Y461Q, O00308”, the abundance fitness was -0.671 ± 0.079. Work on “NEDD4-like E3 ubiquitin-protein ligase WWP2 E451N, O00308” yielded an abundance fitness of -0.342 ± 0.065. With “NEDD4-like E3 ubiquitin-protein ligase WWP2 P444T, O00308” the abundance fitness was 0.045 ± 0.063. “Heterogeneous nuclear ribonucleoprotein U-like protein 2 V27A, Q1KMD3” showed an abundance fitness of 0.131 ± 0.053. With “NEDD4-like E3 ubiquitin-protein ligase WWP2 A490W, O00308” the abundance fitness was -0.185 ± 0.046. Work on “NEDD4-like E3 ubiquitin-protein ligase WWP2 N466K, O00308” yielded an abundance fitness of -0.202 ± 0.07. With “NEDD4-like E3 ubiquitin-protein ligase WWP2 P477V, O00308” the abundance fitness was 0.037 ± 0.034. “NEDD4-like E3 ubiquitin-protein ligase WWP2 G458Y, O00308” showed an abundance fitness of -0.262 ± 0.064. For “NEDD4-like E3 ubiquitin-protein ligase WWP2 G489V, O00308”, the abundance fitness was -0.031 ± 0.048. With “NEDD4-like E3 ubiquitin-protein ligase WWP2 K453F, O00308” the abundance fitness was -0.006 ± 0.075. Substance “Transcription factor SOX-11 E103S, P35716” has an abundance fitness of -0.684 ± 0.072. Work on “NEDD4-like E3 ubiquitin-protein ligase WWP2 Y491W, O00308” yielded an abundance fitness of -0.104 ± 0.054. With “NEDD4-like E3 ubiquitin-protein ligase WWP2 T483I, O00308” the abundance fitness was -0.056 ± 0.038. “NEDD4-like E3 ubiquitin-protein ligase WWP2 G486Y, O00308” gave an abundance fitness of -0.239 ± 0.069. “NEDD4-like E3 ubiquitin-protein ligase WWP2 Q442L, O00308” showed an abundance fitness of -0.058 ± 0.045.
